Results on 2 substances are retold here after patent publication CN113372445A.

Test [1] has as its target 人PD-1蛋白 (human) (UniProt Q15116). The test is described as follows: BLI (ForteBio), antibody loaded on sensor, PD-1 protein 100-6.25 nM in solution.
Test [2] has the same target. The test is described as follows: competition ELISA: human PD-1 coated, antibody titrated together with biotin-labelled PD-L1 (competitor).
The target of test [3] is PD-1 on GS-J2/PD-1 cells (human) (UniProt Q15116). The test is described as follows: cell-based or functional assay.
Sequence of PD-1 on GS-J2/PD-1 cells (human) (Q15116 25-288 limits assumed): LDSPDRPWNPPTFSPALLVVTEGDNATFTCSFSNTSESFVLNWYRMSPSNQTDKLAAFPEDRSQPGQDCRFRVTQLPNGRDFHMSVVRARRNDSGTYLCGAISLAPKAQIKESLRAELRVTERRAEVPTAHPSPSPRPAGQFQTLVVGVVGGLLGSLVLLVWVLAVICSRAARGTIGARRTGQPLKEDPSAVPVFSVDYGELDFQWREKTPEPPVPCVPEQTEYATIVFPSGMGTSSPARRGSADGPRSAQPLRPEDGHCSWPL

Sequence of 人PD-1蛋白 (human) (Q15116 25-167 limits assumed): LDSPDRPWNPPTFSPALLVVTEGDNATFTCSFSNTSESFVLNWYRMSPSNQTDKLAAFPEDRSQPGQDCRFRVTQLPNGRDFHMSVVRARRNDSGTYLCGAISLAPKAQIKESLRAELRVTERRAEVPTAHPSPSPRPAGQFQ

In test [1], Keytruda (antibody) displayed a Kd of 1.01 nM, a koff of 0.000286 s⁻¹ and a kon of 283000 M⁻¹ s⁻¹. The substance also gave an EC50 in test [2] of 110 nM. Further, the EC50(nM), luciferase reporter (RLU, 激活百分比) in GS-J2/PD-1 cells co-cultured with GS-C2/PD-L1 cells in test [3] worked out at 0.142 nM.

In the case of Opdivo (antibody), the equilibrium dissociation constant (Kd) in test [1] turned out to be 1.63 nM. The same substance came in with an EC50 in test [2] of 175 nM.
